Molecular target: T1, human recombinant biotinylated FcRn (Immunitrack) (human, UniProt P55899 24-297; P61769 21-119, limits assumed, biotinylated (site not stated))
T1 construct: Immobilized on a ProteOn NLC chip for SPR at pH 6.0; also called human FcRn; human recombinant FcRn
Assay: SPR, human FcRn immobilized, IL-12Fc variants in liquid phase, pH 6.0

T1 sequence (P55899 24-297 limits assumed, chain 1 of 2): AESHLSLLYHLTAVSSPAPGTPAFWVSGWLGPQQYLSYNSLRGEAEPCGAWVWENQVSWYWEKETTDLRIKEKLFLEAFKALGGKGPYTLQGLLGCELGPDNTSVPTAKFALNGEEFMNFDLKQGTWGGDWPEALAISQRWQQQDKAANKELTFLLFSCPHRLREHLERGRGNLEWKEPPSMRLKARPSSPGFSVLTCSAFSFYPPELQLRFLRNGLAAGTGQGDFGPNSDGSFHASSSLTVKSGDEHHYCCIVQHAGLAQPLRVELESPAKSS
T1 sequence (P61769 21-119 limits assumed, chain 2 of 2): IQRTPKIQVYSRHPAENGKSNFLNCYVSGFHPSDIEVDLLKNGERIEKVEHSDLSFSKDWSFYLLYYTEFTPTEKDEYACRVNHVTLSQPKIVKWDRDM

B1: human IL-12Fc NHQ (Fc fusion)
chain: IWELKKDVYVVELDWYPDAPGEMVVLTCDTPEEDGITWTLDQSSEVLGSGKTLTIQVKEFGDAGQYTCHKGGEVLSHSLLLLHKKEDGIWSTDILKDQKEPKNKTFLRCEAKNYSGRFTCWWLTTISTDLTFSVKSSRGSSDPQGVTCGAATLSAERVRGDNKEYEYSVECQEDSACPAAEESLPIEVMVDAVHKLKYENYTSSFFIRDIIKPDPPKNLQLKPLKNSRQVEVSWEYPDTWSTPHSYFSLTFCVQVQGKSKREKKDRVFTDKTSATVICRKNASISVRAQDRYYSSSWSEWASVPCSGGGGSGGGGSGGGGSRNLPVATPDPGMFPCLHHSQNLLRAVSNMLQKARQTLEFYPCTSEEIDHEDITKDKTSTVEACLPLELTKNESCLNSRETSFITNGSCLASRKTSFMMALCLSSIYEDLKMYQVEFKTMNAKLLMDPKRQIFLDQNMLAVIDELMQALNFNSETVPQKSSLEEPDFYKTKIKLCILLHAFRIRAVTIDRVMSYLNASKVDKRVESKYGPPCPPCPAPEFLGGPSVFLFPPKPKDTLMNSRTPEVTCVVVDVSQEDPEVQFNWYVDGVEVHNAKTKPREEQFNSTYRVVSVLTVLHQDWLNGKEYKCKVSNKGLPSSIEKTISKAKGQPREPQVYTLPPSPEEMTKNQVSLTCLVKGFYPSDIAVEWESNGQPENNYKTTPPVLDSDGSFFLYSRLTVDKSRWQEGNVFSCSVMHEALHNQYTQKSLSLSLGK
notes: also called NHQ variant
fold reduction of affinity against IL-12Fc WT: ~8 fold
